The values below come from patent US20250250355A1 (BIOSION, published 2025).

Read-outs that look alike come from different tables or passages of the source.

In experiment [1] the target is T1, full length human SIRPα on cell membranes (HEK293-SIRPα cells; 293F-SIRPα cells) (human, UniProt P78324 31-504).
T1 construct: whole, on cells; also called cell surface human SIRPα; cell surface SIRPα
Description: cell based binding FACS on HEK293-SIRPα cells, MFI.

Experiment [2] concerns the target T2, cynomolgus SIRPα-his protein (cynomolgus).
T2 construct: also called Cyno SIRPα-his; monkey SIRPα
T2 chain: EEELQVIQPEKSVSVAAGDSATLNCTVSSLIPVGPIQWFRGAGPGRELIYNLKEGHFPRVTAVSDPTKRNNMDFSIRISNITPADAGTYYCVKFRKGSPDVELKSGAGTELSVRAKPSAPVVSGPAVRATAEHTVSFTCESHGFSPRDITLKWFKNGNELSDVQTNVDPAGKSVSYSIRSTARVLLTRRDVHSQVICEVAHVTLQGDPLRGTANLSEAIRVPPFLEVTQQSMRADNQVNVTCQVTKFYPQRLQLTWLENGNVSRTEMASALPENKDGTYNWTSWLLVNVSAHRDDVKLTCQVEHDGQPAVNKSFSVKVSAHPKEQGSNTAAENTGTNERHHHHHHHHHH
Description: indirect ELISA on coated cynomolgus SIRPα-his, OD(450-630). (In an ELISA, binding on a coated surface is turned into a signal by an enzyme label.)

In experiment [3] the target is human SIRPα-isoform 2-his protein (human). The experiment is described as follows: indirect ELISA on coated human SIRPα-isoform 2-his, OD(450-630).
Experiment [4] deals with T3, full length human SIRPβ on cell membranes (HEK293-SIRPβ cells; 293F cells expressing human SIRPβ) (human, UniProt O00241 30-398).
T3 construct: whole, on cells; also called cell surface human SIRPβ
Description: cell based binding FACS on HEK293-SIRPβ cells, MFI; plateau at MFI about 1300.

Experiment [5] addresses T1, full length human SIRPα on cell …. The experiment is described as follows: cell based blocking FACS on 293F-SIRPα cells; blocked ligand: biotin-labeled human CD47-Fc, MFI.
Experiment [6] addresses T4, human SIRPα-his protein (human, UniProt P78324 31-370). Description: competitive ELISA on coated human SIRPα-his; blocked ligand: biotin-labeled human CD47-his, OD(450-630).
Experiment [7] deals with T5, full length human SIRPγ endogenously expressed on Jurkat cells (human, UniProt Q9P1W8 29-387).
T5 construct: whole, on cells; also called human SIRPγ expressed on Jurkat cells
Description: cell based binding FACS on Jurkat cells (endogenous human SIRPγ), MFI; curve flat near MFI 0 (see non_binding).

Experiment [8] concerns the target T6, recombinant human SIRPα-Fc protein (human, biotin-labeled (sites not given)).
T6 construct: also called biotin-labeled human SIRPα-Fc protein
The experiment is described as follows: capture ELISA, antibody captured on anti-mouse IgG F(ab')2, biotin-labeled human SIRPα-Fc in solution, OD(450-630).

Experiment [9] concerns the target T3, full length human SIRPβ on cell …. The experiment is described as follows: cell based binding FACS on HEK293-SIRPβ cells, MFI.
Experiment [10] addresses T2, cynomolgus SIRPα-his protein. Description: indirect ELISA on coated cynomolgus SIRPα-his, OD(450-630); curve rises only above about 3 nM, to OD about 0.9 at the last point, no plateau.
The target in experiment [11] is T7, mouse SIRPα-his (mouse, UniProt P97797 35-363, limits assumed).
T7 chain: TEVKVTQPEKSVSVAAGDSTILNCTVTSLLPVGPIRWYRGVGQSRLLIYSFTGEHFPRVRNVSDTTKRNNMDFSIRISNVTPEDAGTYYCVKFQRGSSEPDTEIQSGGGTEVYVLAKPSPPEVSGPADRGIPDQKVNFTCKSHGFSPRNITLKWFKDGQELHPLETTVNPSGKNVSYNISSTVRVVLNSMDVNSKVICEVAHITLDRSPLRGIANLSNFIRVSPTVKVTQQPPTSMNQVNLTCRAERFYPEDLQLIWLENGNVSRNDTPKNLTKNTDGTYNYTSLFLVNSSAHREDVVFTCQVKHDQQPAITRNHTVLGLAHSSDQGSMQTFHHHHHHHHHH
Description: indirect ELISA on coated mouse SIRPα-his, OD(450-630).

Experiment [12] has as its target human SIRPα-V8-his protein (human, UniProt P78324 31-370, limits assumed). The experiment is described as follows: indirect ELISA on coated human SIRPα-V8-his, OD(450-630).
Experiment [13] has as its target T2, cynomolgus SIRPα-his protein. Description: indirect ELISA on coated cynomolgus SIRPα-his, OD(450-630).
In experiment [14] the target is human SIRPα-isoform 2-his protein (human). Description: indirect ELISA on coated human SIRPα-isoform 2-his, OD(450-630). The source holds these as a separate data set.
The target in experiment [15] is T1, full length human SIRPα on cell …. Description: cell based binding FACS on 293F cells expressing human SIRPα, MFI.
Experiment [16] addresses T3, full length human SIRPβ on cell …. Description: cell based binding FACS on 293F cells expressing human SIRPβ, MFI.
Experiment [17] deals with human SIRPγ-his protein (human, UniProt Q9P1W8 29-360, limits assumed). The experiment is described as follows: SPR (Biacore T200), antibody captured on Protein A chip, human SIRPγ-his flowed. In general terms: Surface plasmon resonance follows binding to a sensor surface in real time, without labels.
Experiment [18] deals with T5, full length human SIRPγ endogenously …. The experiment is described as follows: cell based binding FACS on Jurkat cells (endogenous human SIRPγ), MFI.
Experiment [19] addresses human SIRPβ-his protein (human, UniProt O00241 30-371). Description: SPR (Biacore T200), antibody captured on Protein A chip, human SIRPβ-his flowed.
Experiment [20] concerns the target T8, human FcRn protein (Cat #FCM-H5286, Acro biosystems Inc.) (human, UniProt P55899 24-297; P61769 21-119). The experiment is described as follows: SPR (Biacore); human FcRn covalently linked to CM5 chip, antibody flowed from 62.5 µg/ml; pH 6.0.
Experiment [21] addresses T8, human FcRn protein (Cat #FCM-H5286, …). Description: SPR (Biacore); human FcRn covalently linked to CM5 chip, antibody flowed from 62.5 µg/ml; pH 7.4.
Experiment [22] addresses T1, full length human SIRPα on cell …. Description: cell based blocking FACS on 293F-SIRPα cells; blocked ligand: human CD47 protein (CD47-Fc), MFI.
In experiment [23] the target is T4, human SIRPα-his protein. Description: SPR (Biacore T200); antibody captured on Protein A chip, human SIRPα-his flowed from 200 nM; 1:1 Langmuir fit.
The target of experiment [24] is T2, cynomolgus SIRPα-his protein. Description: SPR (Biacore T200); antibody captured on Protein A chip, cynomolgus SIRPα-his flowed from 200 nM; 1:1 Langmuir fit.
For experiment [25], the target named is human SIRPα protein (soluble, used on 293F-CD47 cells) (human, UniProt P78324 31-370, limits assumed). The experiment is described as follows: cell based blocking FACS on 293F-CD47 cells; soluble human SIRPα protein blocked from binding cell surface human CD47, MFI.
For experiment [26], the target named is T8, human FcRn protein (Cat #FCM-H5286, …). Description: SPR (Biacore); human FcRn covalently linked to CM5 chip, antibody flowed from 62.5 µg/ml; pH 6.0; pH 6.0.

T1 sequence (P78324 31-504): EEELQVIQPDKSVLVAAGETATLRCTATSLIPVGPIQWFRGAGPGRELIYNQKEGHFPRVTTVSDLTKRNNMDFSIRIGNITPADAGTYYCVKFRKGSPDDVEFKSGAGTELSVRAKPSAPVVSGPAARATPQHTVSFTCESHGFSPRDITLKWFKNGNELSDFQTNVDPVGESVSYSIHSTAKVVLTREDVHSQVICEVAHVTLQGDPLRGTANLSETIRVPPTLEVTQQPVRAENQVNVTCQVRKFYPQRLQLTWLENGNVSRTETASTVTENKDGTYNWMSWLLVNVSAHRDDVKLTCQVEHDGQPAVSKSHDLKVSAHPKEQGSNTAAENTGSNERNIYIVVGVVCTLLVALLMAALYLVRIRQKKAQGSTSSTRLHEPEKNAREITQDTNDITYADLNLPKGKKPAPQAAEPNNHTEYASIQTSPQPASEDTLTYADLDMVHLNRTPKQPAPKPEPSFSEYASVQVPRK
human SIRPα-isoform 2-his protein (human), sequence (chain, as listed by the source limits assumed): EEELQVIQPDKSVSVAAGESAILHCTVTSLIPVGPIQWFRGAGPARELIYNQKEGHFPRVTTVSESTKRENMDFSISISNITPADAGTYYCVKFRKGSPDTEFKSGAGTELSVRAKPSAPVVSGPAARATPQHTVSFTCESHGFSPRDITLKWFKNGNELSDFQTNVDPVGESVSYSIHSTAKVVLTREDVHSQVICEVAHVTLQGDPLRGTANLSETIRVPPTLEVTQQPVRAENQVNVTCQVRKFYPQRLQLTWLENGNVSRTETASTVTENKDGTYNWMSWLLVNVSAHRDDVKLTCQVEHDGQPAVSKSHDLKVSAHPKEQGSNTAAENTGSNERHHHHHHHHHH
T3 sequence (O00241 30-398): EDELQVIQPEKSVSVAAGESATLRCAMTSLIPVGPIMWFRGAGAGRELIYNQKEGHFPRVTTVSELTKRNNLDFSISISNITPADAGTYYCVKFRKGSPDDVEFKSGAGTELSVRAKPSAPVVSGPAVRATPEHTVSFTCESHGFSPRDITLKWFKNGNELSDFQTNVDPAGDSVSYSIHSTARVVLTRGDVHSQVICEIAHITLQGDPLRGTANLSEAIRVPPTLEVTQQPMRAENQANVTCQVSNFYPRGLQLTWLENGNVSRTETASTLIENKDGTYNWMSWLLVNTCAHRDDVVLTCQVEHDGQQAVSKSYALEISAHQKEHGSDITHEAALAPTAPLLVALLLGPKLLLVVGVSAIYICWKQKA
T5 sequence (Q9P1W8 29-387): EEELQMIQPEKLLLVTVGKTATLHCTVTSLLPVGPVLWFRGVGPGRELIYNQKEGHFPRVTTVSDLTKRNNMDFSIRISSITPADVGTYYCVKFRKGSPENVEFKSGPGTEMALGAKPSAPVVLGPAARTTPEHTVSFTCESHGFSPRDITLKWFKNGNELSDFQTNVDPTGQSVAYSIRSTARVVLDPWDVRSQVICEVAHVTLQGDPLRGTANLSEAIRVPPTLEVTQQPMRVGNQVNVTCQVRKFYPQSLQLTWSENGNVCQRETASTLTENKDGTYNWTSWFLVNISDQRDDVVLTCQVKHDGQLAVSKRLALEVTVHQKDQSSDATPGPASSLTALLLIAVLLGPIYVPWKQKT
T4 sequence (P78324 other isoform, or with tags, fused parts or gaps limits assumed): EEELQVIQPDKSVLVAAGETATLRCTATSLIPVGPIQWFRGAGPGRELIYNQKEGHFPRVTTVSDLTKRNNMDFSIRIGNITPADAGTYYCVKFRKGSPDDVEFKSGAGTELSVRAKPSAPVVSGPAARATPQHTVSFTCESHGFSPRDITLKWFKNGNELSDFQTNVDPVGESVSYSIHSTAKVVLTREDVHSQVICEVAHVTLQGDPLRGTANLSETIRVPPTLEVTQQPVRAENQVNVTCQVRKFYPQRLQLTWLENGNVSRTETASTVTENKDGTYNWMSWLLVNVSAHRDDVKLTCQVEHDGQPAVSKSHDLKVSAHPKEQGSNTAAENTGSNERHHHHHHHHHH
T8 sequence (P55899 24-297 limits assumed, chain 1 of 2): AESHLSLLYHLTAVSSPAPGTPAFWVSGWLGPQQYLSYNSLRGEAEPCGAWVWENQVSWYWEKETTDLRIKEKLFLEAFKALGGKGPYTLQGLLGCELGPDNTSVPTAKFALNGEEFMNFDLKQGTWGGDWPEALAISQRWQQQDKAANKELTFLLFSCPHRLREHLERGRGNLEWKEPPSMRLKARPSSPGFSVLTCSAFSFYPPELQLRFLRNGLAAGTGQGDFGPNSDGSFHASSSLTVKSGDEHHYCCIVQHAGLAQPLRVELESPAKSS
T8 sequence (P61769 21-119 limits assumed, chain 2 of 2): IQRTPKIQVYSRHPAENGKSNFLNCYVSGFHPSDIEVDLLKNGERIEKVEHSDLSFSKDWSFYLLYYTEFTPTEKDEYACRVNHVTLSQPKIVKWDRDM
human SIRPγ-his protein, sequence (Q9P1W8 29-360 limits assumed): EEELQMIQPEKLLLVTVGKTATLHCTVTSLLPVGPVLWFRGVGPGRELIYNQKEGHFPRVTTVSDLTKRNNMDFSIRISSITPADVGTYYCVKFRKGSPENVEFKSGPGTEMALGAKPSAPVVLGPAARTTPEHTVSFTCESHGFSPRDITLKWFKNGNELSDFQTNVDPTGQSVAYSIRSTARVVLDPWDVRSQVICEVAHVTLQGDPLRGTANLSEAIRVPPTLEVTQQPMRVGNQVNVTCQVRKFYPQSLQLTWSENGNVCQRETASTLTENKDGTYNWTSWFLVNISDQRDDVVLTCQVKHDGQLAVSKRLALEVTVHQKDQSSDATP
human SIRPα-V8-his protein, sequence (P78324 other isoform, or with tags, fused parts or gaps limits assumed): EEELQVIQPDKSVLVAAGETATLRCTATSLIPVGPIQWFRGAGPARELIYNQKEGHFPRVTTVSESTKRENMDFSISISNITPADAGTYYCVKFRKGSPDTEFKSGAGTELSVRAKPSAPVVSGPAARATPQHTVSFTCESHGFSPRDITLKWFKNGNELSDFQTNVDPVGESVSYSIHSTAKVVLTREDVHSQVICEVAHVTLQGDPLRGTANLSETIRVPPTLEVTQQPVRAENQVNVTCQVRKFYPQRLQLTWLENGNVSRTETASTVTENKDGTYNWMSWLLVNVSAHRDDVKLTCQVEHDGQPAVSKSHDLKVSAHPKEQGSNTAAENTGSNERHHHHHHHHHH
human SIRPα protein (soluble, used on 293F-CD47 cells), sequence (P78324 31-370 limits assumed): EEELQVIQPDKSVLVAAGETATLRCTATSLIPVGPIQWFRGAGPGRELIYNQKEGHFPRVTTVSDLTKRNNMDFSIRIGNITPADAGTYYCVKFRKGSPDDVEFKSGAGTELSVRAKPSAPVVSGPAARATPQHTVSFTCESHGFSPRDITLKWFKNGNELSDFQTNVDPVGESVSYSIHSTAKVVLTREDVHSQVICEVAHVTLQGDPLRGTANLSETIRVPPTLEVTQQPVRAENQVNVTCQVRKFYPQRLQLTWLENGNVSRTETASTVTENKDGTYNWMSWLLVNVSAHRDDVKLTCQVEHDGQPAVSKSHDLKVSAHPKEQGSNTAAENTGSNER
T6 sequence (chain, as listed by the source limits assumed): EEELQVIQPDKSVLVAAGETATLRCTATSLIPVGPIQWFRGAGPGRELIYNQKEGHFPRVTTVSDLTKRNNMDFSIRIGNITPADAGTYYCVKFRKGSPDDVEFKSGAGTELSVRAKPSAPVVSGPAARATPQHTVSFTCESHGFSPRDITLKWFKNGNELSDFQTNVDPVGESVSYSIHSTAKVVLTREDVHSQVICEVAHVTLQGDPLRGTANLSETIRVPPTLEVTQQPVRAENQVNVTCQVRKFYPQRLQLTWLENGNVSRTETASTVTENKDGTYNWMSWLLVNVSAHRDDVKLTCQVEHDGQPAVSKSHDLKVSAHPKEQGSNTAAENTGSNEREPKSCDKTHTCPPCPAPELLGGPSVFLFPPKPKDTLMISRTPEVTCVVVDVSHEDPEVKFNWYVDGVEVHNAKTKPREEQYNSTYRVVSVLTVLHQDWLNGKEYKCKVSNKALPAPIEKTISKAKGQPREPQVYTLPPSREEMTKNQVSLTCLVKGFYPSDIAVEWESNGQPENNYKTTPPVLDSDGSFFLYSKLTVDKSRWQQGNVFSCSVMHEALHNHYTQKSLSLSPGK
human SIRPβ-his protein, sequence (O00241 other isoform, or with tags, fused parts or gaps limits assumed): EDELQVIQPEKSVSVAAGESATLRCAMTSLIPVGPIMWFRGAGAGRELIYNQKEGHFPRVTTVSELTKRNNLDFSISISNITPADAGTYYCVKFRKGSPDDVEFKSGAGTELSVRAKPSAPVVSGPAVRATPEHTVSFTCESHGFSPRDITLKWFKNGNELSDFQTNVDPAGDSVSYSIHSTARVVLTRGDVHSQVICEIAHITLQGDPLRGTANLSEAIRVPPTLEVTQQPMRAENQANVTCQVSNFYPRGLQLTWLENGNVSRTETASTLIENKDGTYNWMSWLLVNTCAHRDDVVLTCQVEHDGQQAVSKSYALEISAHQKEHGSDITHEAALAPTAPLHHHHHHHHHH

B1: E1D5E1F1 (antibody, V domains shown)
VH: QVQLVQSGAEVKKPGASVKVSCKASGYTFTSFAMQWVRRAPGQRLEWMGWIIAGNGDTKYSQNFQDRVTLTRDTSANTAYMDLSGLRSEDTAVYYCARGSGFSGYGYFDKWGQGTLVTVSS
VL: DIQMTQSPSSLSASVGDRVTITCRASHSISSYLNWYQQKPGKVPKLLIYASSSLQSGVPSRFSGNGSGTDFTLIISSLQPEDFATYYCQQSHSIPLTFGGGTKVEIK
notes: Purified from a hybridoma of AceMouse mice: human heavy and light chain variable regions with mouse constant regions
As for B1, the concentration giving a half-maximal response (EC50) (as a rule, the concentration at which the effect is half-maximal) in experiment [1] is 0.927 nM; in experiment [2] it was 0.094 nM; in experiment [3], 0.119 nM; in experiment [4] it was 0.738 nM; in [7], 0.63 nM; in [8] it was 0.0715 nM. Further, the figures for the concentration for half-maximal inhibition (IC50) in [5] and in experiment [6] were 0.706 nM and 2.17 nM, respectively.

B2: E1F1B1C3 (antibody, V domains shown)
VH: QVQLVQSGAEVKKPGASVKVSCKASGYTFTSNAMHWVRQVPGQGLEWMGWIKAGNGEIKYSQKFQGRVTITRDTSATTAYMELSSLRSEDTAVYYCARGDYYYYYMDVWGKGTTVTVSS
VL: DIQVTQSPSSLSASVGDRVTITCRASQSISDFLNWYQQKPGKAPKLLIHAASSLQNGVPSRFSGSGSGTDFSLTINSLQPEDFATYYCQQSYSTPLSFGGGTKVEIK
As for B2, the EC50 in [1] was 0.303 nM; in experiment [9], 0.217 nM; in experiment [3], 0.105 nM; in experiment [7] it was 106 nM; in experiment [8] it was 0.0491 nM; in experiment [10], 48.1 nM. The IC50 (in general, the midpoint of a concentration-inhibition curve) in experiment [5] came to 0.146 nM; in experiment [6] it was 2.13 nM.

B3: E1H10B7-CDRV1-IgG1 (YTE) (antibody)
heavy: QVQLVQSGAEVKKPGASVKVSCKASGYTFTSYAMQWVRQAPGQRLEWMGWIIAGNADTKYSQNFQDRVTLTRDTSANTAYMDLSGLRSEDTAVYYCARGSGFSGYGYFDKWGQGTLVTVSSASTKGPSVFPLAPSSKSTSGGTAALGCLVKDYFPEPVTVSWNSGALTSGVHTFPAVLQSSGLYSLSSVVTVPSSSLGTQTYICNVNHKPSNTKVDKKVEPKSCDKTHTCPPCPAPEAQGGPSVFLFPPKPKDTLYITREPEVTCVVVDVSHEDPEVKFNWYVDGVEVHNAKTKPREEQYNSTYRVVSVLTVLHQDWLNGKEYKCQVSNKALPAPIEKTISKAKGQPREPQVYTLPPSRDELTKNQVSLTCLVKGFYPSDIAVEWESNGQPENNYKTTPPVLDSDGSFFLYSKLTVDKSRWQQGNVFSCSVMHEALHNHYTQKSLSLSPG
light: DIQMTQSPSSLSASVGDRVTITCRASHSISSYLNWYQQKPGKVPKLLIYASSSLQSGVPSRFSGSGSGTDFTLIISSLQPEDFATYYCQQSHSIPLTFGGGTKVEIKRTVAAPSVFIFPPSDEQLKSGTASVVCLLNNFYPREAKVQWKVDNALQSGNSQESVTEQDSKDSTYSLSSTLTLSKADYEKHKVYACEVTHQGLSSPVTKSFNRGEC
As to B3, the binding result in [11] is on record as “no binding (tested: ~67 nM)”; in experiment [17], “no binding (tested: antigen starting at 200 nM)”; in experiment [18], “no binding (tested: ~67 nM)”; in experiment [19] it was “no binding”. Besides, the half-maximal effective concentration (EC50) in experiment [12] is 0.141 nM; in experiment [13] it was 0.209 nM; in [14], 0.173 nM; in experiment [15] it was 0.956 nM; in experiment [16] it was 1.47 nM. Further, the Kd (as a rule, the free concentration of one partner at which half of the binding sites on the other are occupied at equilibrium, for simple one-to-one binding) in experiment [20] was found to be 28.8 nM; in experiment [21], 129 nM; in experiment [23], 14.6 nM; in experiment [24] it was 553 nM. Moreover, the half-inhibitory concentration (IC50) in experiment [22] was determined as 2.62 nM; in experiment [25], 0.368 nM. The figures for the dissociation rate constant (koff) in [23] and in experiment [24] were 0.00188 s⁻¹ and 0.0146 s⁻¹, respectively. Moreover, the results for the kon in experiment [23] and in experiment [24] were 129000 M⁻¹ s⁻¹ and 26400 M⁻¹ s⁻¹, respectively.

B4: E1H10B7-CDRV1-IgG1 (antibody)
heavy: not shown
light: B3 light
On to B4, for which the binding result in experiment [11] is listed as “no binding (tested: ~67 nM)”; in experiment [17] it was “no binding (tested: antigen starting at 200 nM)”; in [18], “no binding (tested: ~67 nM)”; in experiment [19], “no binding”. Further, the EC50 in experiment [12] was 0.151 nM; in experiment [13], 0.224 nM; in [14] it was 0.184 nM; in experiment [15], 0.973 nM; in experiment [16] it was 1.23 nM. The Kd was 94.1 nM in experiment [26], 8.78 nM in [23] and 376 nM in experiment [24]. The IC50 turned out to be 2.3 nM in experiment [22] and 0.347 nM in experiment [25]. Besides, the figures for the koff in experiment [23] and in experiment [24] were 0.00118 s⁻¹ and 0.0132 s⁻¹, respectively. Also, the on-rate constant (kon) – broadly, the rate constant with which the complex forms – turned out to be 134000 M⁻¹ s⁻¹ in [23] and 35000 M⁻¹ s⁻¹ in experiment [24].
